# In patent publication US12679878B2, “CRF2 receptor agonists and their use in therapy” (SANOFI, priority 2020, dated 2026):
# Starred links: 1 amine or outer side, 2 acyl side, 3 side chain; linkers in the order of their positions; H or OH if unused. Non-standard residues stand in square brackets, D forms with d. Groups on a side chain read outwards from the residue. No end group written: not given here. *: point of attachment. C20 diacid = O=C(O)CCCCCCCCCCCCCCCCCCC(=O)*; C16 diacid = O=C(O)CCCCCCCCCCCCCCC(=O)*; γGlu = O=C(O)[C@H](CCC(=O)[*:2])N[*:1]; Palmitoyl = CCCCCCCCCCCCCCCC(=O)*; AEEA = NCCOCCOCC(=O)O; Aib = CC(C)(N)C(=O)O
# T1: CRF1R receptor (anti-target) (UniProt P34998 24-415, limits assumed)
# T1 sequence (looked up): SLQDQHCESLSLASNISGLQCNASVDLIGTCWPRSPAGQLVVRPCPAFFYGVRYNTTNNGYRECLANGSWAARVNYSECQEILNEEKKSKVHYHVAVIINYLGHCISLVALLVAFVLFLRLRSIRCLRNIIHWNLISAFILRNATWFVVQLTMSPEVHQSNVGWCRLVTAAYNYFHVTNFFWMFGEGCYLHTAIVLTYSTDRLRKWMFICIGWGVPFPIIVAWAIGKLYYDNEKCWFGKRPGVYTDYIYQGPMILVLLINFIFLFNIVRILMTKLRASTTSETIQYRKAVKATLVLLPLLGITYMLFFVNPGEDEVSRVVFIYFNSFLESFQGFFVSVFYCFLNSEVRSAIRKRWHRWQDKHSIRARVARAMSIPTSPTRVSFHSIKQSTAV
# Target: T1, CRF1R receptor (anti-target)
# Experiment: cell-based or functional assay
Binder,"EC50 [nM] 0% HSA (cAMP, HTRF) [nM]",Emax (%) (100% = Sauvagine at 100 nM)
IVLSLD[dV]PTKLK([γGlu-Palmitoyl])QKLLKQERQRKERE[Aib]AEKNKRILERV-NH2 [peptide of SEQ ID NO: 225],24.2,58.9
IVLSLD[dV]PIKLK([γGlu-C16 diacid])QILLKQARQK[Aib]QRAQAEKNKRILERV-NH2 (N-terminus assumed; SMILES CC[C@H](C)[C@H](N)C(=O)N[C@H](C(=O)N[C@@H](CC(C)C)C(=O)N[C@@H](CO)C(=O)N[C@@H](CC(C)C)C(=O)N[C@@H](CC(=O)O)C(=O)N[C@@H](C(=O)N1CCC[C@H]1C(=O)N[C@H](C(=O)N[C@@H](CCCCN)C(=O)N[C@@H](CC(C)C)C(=O)N[C@@H](CCCCNC(=O)CC[C@H](NC(=O)CCCCCCCCCCCCCCC(=O)O)C(=O)O)C(=O)N[C@@H](CCC(N)=O)C(=O)N[C@H](C(=O)N[C@@H](CC(C)C)C(=O)N[C@@H](CC(C)C)C(=O)N[C@@H](CCCCN)C(=O)N[C@@H](CCC(N)=O)C(=O)N[C@@H](C)C(=O)N[C@@H](CCCNC(=N)N)C(=O)N[C@@H](CCC(N)=O)C(=O)N[C@@H](CCCCN)C(=O)NC(C)(C)C(=O)N[C@@H](CCC(N)=O)C(=O)N[C@@H](CCCNC(=N)N)C(=O)N[C@@H](C)C(=O)N[C@@H](CCC(N)=O)C(=O)N[C@@H](C)C(=O)N[C@@H](CCC(=O)O)C(=O)N[C@@H](CCCCN)C(=O)N[C@@H](CC(N)=O)C(=O)N[C@@H](CCCCN)C(=O)N[C@@H](CCCNC(=N)N)C(=O)N[C@H](C(=O)N[C@@H](CC(C)C)C(=O)N[C@@H](CCC(=O)O)C(=O)N[C@@H](CCCNC(=N)N)C(=O)N[C@H](C(N)=O)C(C)C)[C@@H](C)CC)[C@@H](C)CC)[C@@H](C)CC)C(C)C)C(C)C) [peptide of SEQ ID NO: 197],> 100,24.4
IVLSLD[dV]PIGLK([γGlu-Palmitoyl])QKLLKQQRQRKERQQAEKNKRILERV-NH2 (N-terminus assumed; SMILES CCCCCCCCCCCCCCCC(=O)N[C@@H](CCC(=O)NCCCC[C@H](NC(=O)[C@H](CC(C)C)NC(=O)CNC(=O)[C@@H](NC(=O)[C@@H]1CCCN1C(=O)[C@H](NC(=O)[C@H](CC(=O)O)NC(=O)[C@H](CC(C)C)NC(=O)[C@H](CO)NC(=O)[C@H](CC(C)C)NC(=O)[C@@H](NC(=O)[C@@H](N)[C@@H](C)CC)C(C)C)C(C)C)[C@@H](C)CC)C(=O)N[C@@H](CCC(N)=O)C(=O)N[C@@H](CCCCN)C(=O)N[C@@H](CC(C)C)C(=O)N[C@@H](CC(C)C)C(=O)N[C@@H](CCCCN)C(=O)N[C@@H](CCC(N)=O)C(=O)N[C@@H](CCC(N)=O)C(=O)N[C@@H](CCCNC(=N)N)C(=O)N[C@@H](CCC(N)=O)C(=O)N[C@@H](CCCNC(=N)N)C(=O)N[C@@H](CCCCN)C(=O)N[C@@H](CCC(=O)O)C(=O)N[C@@H](CCCNC(=N)N)C(=O)N[C@@H](CCC(N)=O)C(=O)N[C@@H](CCC(N)=O)C(=O)N[C@@H](C)C(=O)N[C@@H](CCC(=O)O)C(=O)N[C@@H](CCCCN)C(=O)N[C@@H](CC(N)=O)C(=O)N[C@@H](CCCCN)C(=O)N[C@@H](CCCNC(=N)N)C(=O)N[C@H](C(=O)N[C@@H](CC(C)C)C(=O)N[C@@H](CCC(=O)O)C(=O)N[C@@H](CCCNC(=N)N)C(=O)N[C@H](C(N)=O)C(C)C)[C@@H](C)CC)C(=O)O) [peptide of SEQ ID NO: 226],96.2,84
IVLSLD[dV]PTKLK([AEEA-AEEA-γGlu-C20 diacid])KKLLKQERKR[Aib]EREKAEKAARILERV-NH2 [peptide of SEQ ID NO: 224],> 100,52.6
IVLSLD[dV]PIGLK([γGlu-C16 diacid])QILLKQERQKK[Aib]REQAEKNKRILERV-NH2 (N-terminus assumed; SMILES CC[C@H](C)[C@H](N)C(=O)N[C@H](C(=O)N[C@@H](CC(C)C)C(=O)N[C@@H](CO)C(=O)N[C@@H](CC(C)C)C(=O)N[C@@H](CC(=O)O)C(=O)N[C@@H](C(=O)N1CCC[C@H]1C(=O)N[C@H](C(=O)NCC(=O)N[C@@H](CC(C)C)C(=O)N[C@@H](CCCCNC(=O)CC[C@H](NC(=O)CCCCCCCCCCCCCCC(=O)O)C(=O)O)C(=O)N[C@@H](CCC(N)=O)C(=O)N[C@H](C(=O)N[C@@H](CC(C)C)C(=O)N[C@@H](CC(C)C)C(=O)N[C@@H](CCCCN)C(=O)N[C@@H](CCC(N)=O)C(=O)N[C@@H](CCC(=O)O)C(=O)N[C@@H](CCCNC(=N)N)C(=O)N[C@@H](CCC(N)=O)C(=O)N[C@@H](CCCCN)C(=O)N[C@@H](CCCCN)C(=O)NC(C)(C)C(=O)N[C@@H](CCCNC(=N)N)C(=O)N[C@@H](CCC(=O)O)C(=O)N[C@@H](CCC(N)=O)C(=O)N[C@@H](C)C(=O)N[C@@H](CCC(=O)O)C(=O)N[C@@H](CCCCN)C(=O)N[C@@H](CC(N)=O)C(=O)N[C@@H](CCCCN)C(=O)N[C@@H](CCCNC(=N)N)C(=O)N[C@H](C(=O)N[C@@H](CC(C)C)C(=O)N[C@@H](CCC(=O)O)C(=O)N[C@@H](CCCNC(=N)N)C(=O)N[C@H](C(N)=O)C(C)C)[C@@H](C)CC)[C@@H](C)CC)[C@@H](C)CC)C(C)C)C(C)C) [peptide of SEQ ID NO: 196],> 100,16.9
IVLSLD[dV]PTKLK([γGlu-Palmitoyl])QKLLKQERQRKEREQAEKNKRILERV-NH2 (N-terminus assumed; SMILES CCCCCCCCCCCCCCCC(=O)N[C@@H](CCC(=O)NCCCC[C@H](NC(=O)[C@H](CC(C)C)NC(=O)[C@H](CCCCN)NC(=O)[C@@H](NC(=O)[C@@H]1CCCN1C(=O)[C@H](NC(=O)[C@H](CC(=O)O)NC(=O)[C@H](CC(C)C)NC(=O)[C@H](CO)NC(=O)[C@H](CC(C)C)NC(=O)[C@@H](NC(=O)[C@@H](N)[C@@H](C)CC)C(C)C)C(C)C)[C@@H](C)O)C(=O)N[C@@H](CCC(N)=O)C(=O)N[C@@H](CCCCN)C(=O)N[C@@H](CC(C)C)C(=O)N[C@@H](CC(C)C)C(=O)N[C@@H](CCCCN)C(=O)N[C@@H](CCC(N)=O)C(=O)N[C@@H](CCC(=O)O)C(=O)N[C@@H](CCCNC(=N)N)C(=O)N[C@@H](CCC(N)=O)C(=O)N[C@@H](CCCNC(=N)N)C(=O)N[C@@H](CCCCN)C(=O)N[C@@H](CCC(=O)O)C(=O)N[C@@H](CCCNC(=N)N)C(=O)N[C@@H](CCC(=O)O)C(=O)N[C@@H](CCC(N)=O)C(=O)N[C@@H](C)C(=O)N[C@@H](CCC(=O)O)C(=O)N[C@@H](CCCCN)C(=O)N[C@@H](CC(N)=O)C(=O)N[C@@H](CCCCN)C(=O)N[C@@H](CCCNC(=N)N)C(=O)N[C@H](C(=O)N[C@@H](CC(C)C)C(=O)N[C@@H](CCC(=O)O)C(=O)N[C@@H](CCCNC(=N)N)C(=O)N[C@H](C(N)=O)C(C)C)[C@@H](C)CC)C(=O)O) [peptide of SEQ ID NO: 223],82.8,57.3
IVLSLD[dV]PIGLK([γGlu-C16 diacid])QILLKQERQKK[Aib]RQQAETNKRILERV-NH2 (N-terminus assumed; SMILES CC[C@H](C)[C@H](N)C(=O)N[C@H](C(=O)N[C@@H](CC(C)C)C(=O)N[C@@H](CO)C(=O)N[C@@H](CC(C)C)C(=O)N[C@@H](CC(=O)O)C(=O)N[C@@H](C(=O)N1CCC[C@H]1C(=O)N[C@H](C(=O)NCC(=O)N[C@@H](CC(C)C)C(=O)N[C@@H](CCCCNC(=O)CC[C@H](NC(=O)CCCCCCCCCCCCCCC(=O)O)C(=O)O)C(=O)N[C@@H](CCC(N)=O)C(=O)N[C@H](C(=O)N[C@@H](CC(C)C)C(=O)N[C@@H](CC(C)C)C(=O)N[C@@H](CCCCN)C(=O)N[C@@H](CCC(N)=O)C(=O)N[C@@H](CCC(=O)O)C(=O)N[C@@H](CCCNC(=N)N)C(=O)N[C@@H](CCC(N)=O)C(=O)N[C@@H](CCCCN)C(=O)N[C@@H](CCCCN)C(=O)NC(C)(C)C(=O)N[C@@H](CCCNC(=N)N)C(=O)N[C@@H](CCC(N)=O)C(=O)N[C@@H](CCC(N)=O)C(=O)N[C@@H](C)C(=O)N[C@@H](CCC(=O)O)C(=O)N[C@H](C(=O)N[C@@H](CC(N)=O)C(=O)N[C@@H](CCCCN)C(=O)N[C@@H](CCCNC(=N)N)C(=O)N[C@H](C(=O)N[C@@H](CC(C)C)C(=O)N[C@@H](CCC(=O)O)C(=O)N[C@@H](CCCNC(=N)N)C(=O)N[C@H](C(N)=O)C(C)C)[C@@H](C)CC)[C@@H](C)O)[C@@H](C)CC)[C@@H](C)CC)C(C)C)C(C)C) [peptide of SEQ ID NO: 195],> 100,17.1
